Laboratory results reported in US20190127480A1 (Regeneron, published 2019).
Changes are numbered by the printed parent chain.

B1: H1H7198P (antibody, human IgG1, V domains shown)
VH: EVQLVESGGGLVQPGRSLRLSCAASGFTFADYTMHWVRQVPGKGLEWVSDISWNSGSKDYADSVKGRFTISRDNAKNFLYLQMNSLRAEDTALYYCVKYGSGYGKFYFYAMDVWGQGTTVTVSS
VL: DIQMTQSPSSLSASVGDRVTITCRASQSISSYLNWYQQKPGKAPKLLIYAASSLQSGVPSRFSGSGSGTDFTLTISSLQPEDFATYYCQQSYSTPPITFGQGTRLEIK
notes: Monovalent 1-arm format: second Fab removed, only the Fc portion (CH2-CH3) expressed; human IgG1 Fc; tied by the numerical identifier; also called H1H7198B
B2: H1H7203P (antibody, human IgG1, V domains shown)
VH: B1 VH with E6Q, V40T, D50G, F78S, A88T, V97A, K105R, F106Y, Y107F
VL: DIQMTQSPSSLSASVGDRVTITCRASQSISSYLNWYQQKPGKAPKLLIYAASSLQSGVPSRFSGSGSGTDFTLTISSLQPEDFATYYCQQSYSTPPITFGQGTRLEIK
notes: Monovalent 1-arm format: second Fab removed, only the Fc portion (CH2-CH3) expressed; human IgG1 Fc; tied by the numerical identifier; also called H1H7203B
B3: H1H7211P (antibody, human IgG1, V domains shown)
VH: EVQLVESGGGLVHPGRSLRLSCTASGFKFADYTMHWVRQAPGKGLEWVSDISWNSGSKGYADSVKGRFTISRDNDKNSLYLQMNSLRGEDTALYYCAKDGSGYGRFHFYAIDVWGQGTTVTVSS
VL: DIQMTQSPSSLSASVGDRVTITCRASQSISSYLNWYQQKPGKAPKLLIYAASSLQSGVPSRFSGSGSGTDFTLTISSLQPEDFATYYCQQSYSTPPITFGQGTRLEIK
notes: Monovalent 1-arm format: second Fab removed, only the Fc portion (CH2-CH3) expressed; human IgG1 Fc; tied by the numerical identifier; also called H1H7211B
B4: H1H7226P (antibody, human IgG1, V domains shown)
VH: EVQLVQSGGGLVQPGRSLRLSCAASGFTFSDYTMHWVRQGPGKGLEWVSDISWNSGSKGYTDSVKGRFTISRDNAKKSLYLQMNSLRAEDTALYYCVKDGSGYGKYHFYAMDVWGQGTLVTVSS
VL: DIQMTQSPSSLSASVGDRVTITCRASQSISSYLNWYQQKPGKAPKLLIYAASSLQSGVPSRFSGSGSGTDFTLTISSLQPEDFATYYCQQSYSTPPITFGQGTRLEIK
notes: Monovalent 1-arm format: second Fab removed, only the Fc portion (CH2-CH3) expressed; human IgG1 Fc; tied by the numerical identifier; also called H1H7226B
B5: H1H7232P (antibody, human IgG1, V domains shown)
VH: EVQLVESGGGLVHPGRSLRLSCAASGFTFDDYTMHWVRQAPGKGLEWVSDISWNSGSRGYADSVKGRFTISRDNAENSLYLQMNSLRAEDTALYYCAKDKSGYGHYYYYAMDVWGQGTTVTVSS
VL: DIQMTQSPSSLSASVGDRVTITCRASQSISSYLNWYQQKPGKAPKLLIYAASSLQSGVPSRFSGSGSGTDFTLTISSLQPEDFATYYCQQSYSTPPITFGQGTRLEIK
notes: Monovalent 1-arm format: second Fab removed, only the Fc portion (CH2-CH3) expressed; human IgG1 Fc; tied by the numerical identifier; also called H1H7232B
B6: H1H7233P (antibody, human IgG1, V domains shown)
VH: EVQLVESGGGLVQPGGSLRLSCEASGFTFADYTLHWVRQAPGKGLEWVSDISWNSGTRGYADSVRGRFTISRDNAKKSLYLQMNSLRSEDTALYYCVKDGSGYGRYNFYAMDVWGQGTTVTVSS
VL: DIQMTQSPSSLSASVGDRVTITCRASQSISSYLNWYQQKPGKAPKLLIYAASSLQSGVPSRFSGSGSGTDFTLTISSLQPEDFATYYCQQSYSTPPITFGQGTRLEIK
notes: Monovalent 1-arm format: second Fab removed, only the Fc portion (CH2-CH3) expressed; human IgG1 Fc; tied by the numerical identifier; also called H1H7233B
B7: H1H7204P (antibody, human IgG1, V domains shown)
VH: EVQLVESRGALVQPGRSLRLSCAASGFAFNDYTMHWVRQAPGKGLEWVSDISWNSNSKDYADSVKGRFTISRDNAKNSLYLQMNSLRAEDTALYYCVKDGSGYGKFSLYALDVWGQGTTVTVSS
VL: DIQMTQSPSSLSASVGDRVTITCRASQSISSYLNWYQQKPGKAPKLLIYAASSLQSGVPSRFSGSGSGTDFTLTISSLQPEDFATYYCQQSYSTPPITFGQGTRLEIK
notes: Monovalent 1-arm format: second Fab removed, only the Fc portion (CH2-CH3) expressed; human IgG1 Fc; tied by the numerical identifier; also called H1H7204B
B8: H1H7208P (antibody, human IgG1, V domains shown)
VH: B5 VH with E1Q, T28K, R58K, E76K, N77D, N84D, E89A, L93F, Y106F
VL: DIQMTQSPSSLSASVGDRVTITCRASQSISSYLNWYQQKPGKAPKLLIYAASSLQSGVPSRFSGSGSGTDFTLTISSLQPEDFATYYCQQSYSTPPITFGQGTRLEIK
notes: Monovalent 1-arm format: second Fab removed, only the Fc portion (CH2-CH3) expressed; human IgG1 Fc; tied by the numerical identifier; also called H1H7208B
B9: H1H7221P (antibody, human IgG1, V domains shown)
VH: B1 VH with A23V, A30D, T33S, V40A, D50G, F78S, V97A, F108H, A110G, M111L
VL: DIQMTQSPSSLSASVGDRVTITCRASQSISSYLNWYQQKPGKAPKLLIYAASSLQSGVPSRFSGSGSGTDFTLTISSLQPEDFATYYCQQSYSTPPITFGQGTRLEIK
notes: Monovalent 1-arm format: second Fab removed, only the Fc portion (CH2-CH3) expressed; human IgG1 Fc; tied by the numerical identifier; also called H1H7221B
B10: H1H7242P (antibody, human IgG1, V domains shown)
VH: EVQLVESGGGLVQPGRSLRLSCAASGFTFDDYTMHWVRQGPGKGLEWVSDIGWNSNSIGYADSVKGRFTISRDNAKNSLYLQMNSLRPEDTALYFCVKDKSGYGKFFIGLDVWGQGTMVTVSS
VL: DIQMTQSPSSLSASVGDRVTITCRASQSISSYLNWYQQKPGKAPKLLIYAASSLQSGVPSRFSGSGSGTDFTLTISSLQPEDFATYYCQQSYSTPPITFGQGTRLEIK
notes: Monovalent 1-arm format: second Fab removed, only the Fc portion (CH2-CH3) expressed; human IgG1 Fc; tied by the numerical identifier; also called H1H7242B
B11: H1H7241P (antibody, human IgG1, V domains shown)
VH: B10 VH with D30A, S57T, T69A, F95Y, F107Q, I108Y, M118T
VL: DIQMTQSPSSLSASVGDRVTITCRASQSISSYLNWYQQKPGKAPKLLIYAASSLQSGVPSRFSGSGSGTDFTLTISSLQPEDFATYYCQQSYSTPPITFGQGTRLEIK
notes: Monovalent 1-arm format: second Fab removed, only the Fc portion (CH2-CH3) expressed; human IgG1 Fc; tied by the numerical identifier; also called H1H7241B
B12: H1H7250P (antibody, human IgG1, V domains shown)
VH: B10 VH with E1Q, S57T, I58K
VL: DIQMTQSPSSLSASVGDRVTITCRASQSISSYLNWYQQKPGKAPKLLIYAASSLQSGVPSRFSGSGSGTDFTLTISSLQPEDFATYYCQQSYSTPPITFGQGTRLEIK
notes: Monovalent 1-arm format: second Fab removed, only the Fc portion (CH2-CH3) expressed; human IgG1 Fc; tied by the numerical identifier; also called H1H7250B
B13: H1H7251P (antibody, human IgG1, V domains shown)
VH: EVQLVESGGGLVQPGRSLRLSCAASGFTFADYTMHWVRQGPGTGLEWVSDIGWSGGSLGYADSVKGRFTISRDNAKNSLYLEMNNLRPEDTALYYCVKDKSGYGKFQYGLDVWGQGTTVTVSS
VL: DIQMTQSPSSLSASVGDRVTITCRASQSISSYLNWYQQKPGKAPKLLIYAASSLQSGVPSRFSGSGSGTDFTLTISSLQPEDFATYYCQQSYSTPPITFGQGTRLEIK
notes: Monovalent 1-arm format: second Fab removed, only the Fc portion (CH2-CH3) expressed; human IgG1 Fc; tied by the numerical identifier; also called H1H7251B
B14: H1H7254P (antibody, human IgG1, V domains shown)
VH: B10 VH with L11V, T28K, D31G, S57T
VL: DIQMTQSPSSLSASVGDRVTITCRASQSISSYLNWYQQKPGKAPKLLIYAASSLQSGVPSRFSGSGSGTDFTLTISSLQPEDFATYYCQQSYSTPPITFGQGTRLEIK
notes: Monovalent 1-arm format: second Fab removed, only the Fc portion (CH2-CH3) expressed; human IgG1 Fc; tied by the numerical identifier; also called H1H7254B
B15: H1H7258P (antibody, human IgG1, V domains shown)
VH: B10 VH with E1Q, S57T, K76R, F95Y, F107Q, I108Y, M118T
VL: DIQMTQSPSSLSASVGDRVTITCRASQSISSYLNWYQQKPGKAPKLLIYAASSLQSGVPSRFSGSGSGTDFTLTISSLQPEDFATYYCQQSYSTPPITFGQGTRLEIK
notes: Monovalent 1-arm format: second Fab removed, only the Fc portion (CH2-CH3) expressed; human IgG1 Fc; tied by the numerical identifier; also called H1H7258B
B16: H1H7194P (antibody, human IgG1, V domains shown)
VH: EVQLVESGGGLVQPGRSLRLSCAASGFTFGDYTMHWVRQAPGKGLEWVSDISWNSGSKDYADSVKGRFTISRDNAKNSLYLQMNSLRTEDTAFYYCAKDSRGYGLYYHLGLDVWGQGTTVTVSS
VL: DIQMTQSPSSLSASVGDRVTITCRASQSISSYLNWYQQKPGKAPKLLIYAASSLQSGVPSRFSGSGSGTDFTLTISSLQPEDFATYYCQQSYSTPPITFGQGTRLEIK
notes: Monovalent 1-arm format: second Fab removed, only the Fc portion (CH2-CH3) expressed; human IgG1 Fc; tied by the numerical identifier; also called H1H7194B
B17: H1H7195P (antibody, human IgG1, V domains shown)
VH: B16 VH with G30A, K58I, D59A, L105H, Y107K, H108Y
VL: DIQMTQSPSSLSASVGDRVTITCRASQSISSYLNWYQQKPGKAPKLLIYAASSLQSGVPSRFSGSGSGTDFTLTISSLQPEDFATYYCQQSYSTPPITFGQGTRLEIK
notes: Monovalent 1-arm format: second Fab removed, only the Fc portion (CH2-CH3) expressed; human IgG1 Fc; tied by the numerical identifier; also called H1H7195B
B18: H1H7196P (antibody, human IgG1, V domains shown)
VH: EVQLVESGGGMVQPGRSLRLSCAASGFPFNDYTMHWVRQVPGRGLEWVSDISWNSGSKGYADSVKGRFIISRDNAKNSLYLQMNSLRVEDTALYYCVKDGSGYGRFHYYAMDVWGQGTTVTVSS
VL: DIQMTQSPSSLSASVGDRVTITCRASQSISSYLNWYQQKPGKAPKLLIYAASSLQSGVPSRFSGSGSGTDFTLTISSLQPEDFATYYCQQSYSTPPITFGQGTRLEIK
notes: Monovalent 1-arm format: second Fab removed, only the Fc portion (CH2-CH3) expressed; human IgG1 Fc; tied by the numerical identifier; also called H1H7196B

What follows are binders tested against T1, human CD3 expressed on cells (Jurkat cells; human T-cells of PBMC) (human, UniProt P09693 23-182; P20963 22-164) (assay: cell-based or functional assay).
T1 sequence (chain, as listed by the source, chain 1 of 4): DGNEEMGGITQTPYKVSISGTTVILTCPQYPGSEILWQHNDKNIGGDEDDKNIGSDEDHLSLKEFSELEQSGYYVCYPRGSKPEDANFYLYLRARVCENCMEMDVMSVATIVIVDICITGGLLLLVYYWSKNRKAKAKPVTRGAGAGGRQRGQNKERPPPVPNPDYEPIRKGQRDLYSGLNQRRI
T1 sequence (chain, as listed by the source, chain 2 of 4): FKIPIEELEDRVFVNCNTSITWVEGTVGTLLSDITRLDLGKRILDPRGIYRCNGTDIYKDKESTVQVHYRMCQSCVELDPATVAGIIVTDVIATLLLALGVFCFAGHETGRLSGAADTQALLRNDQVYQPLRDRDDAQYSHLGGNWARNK
T1 sequence (P09693 23-182, chain 3 of 4): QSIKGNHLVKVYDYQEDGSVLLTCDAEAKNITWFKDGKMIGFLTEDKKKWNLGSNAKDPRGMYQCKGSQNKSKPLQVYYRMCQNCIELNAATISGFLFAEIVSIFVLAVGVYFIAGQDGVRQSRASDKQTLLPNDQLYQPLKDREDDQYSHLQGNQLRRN
T1 sequence (P20963 22-164, chain 4 of 4): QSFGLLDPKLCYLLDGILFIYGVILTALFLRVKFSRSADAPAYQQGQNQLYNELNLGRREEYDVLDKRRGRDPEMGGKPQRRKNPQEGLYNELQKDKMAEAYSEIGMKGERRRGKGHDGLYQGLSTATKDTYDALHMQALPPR
B1 was tested, and the “EC50 [M] hPBMC Proliferation” value was 2.55e-12 M. For B2, the “EC50 [M] hPBMC Proliferation” value was 1.64e-12 M. For B3, the “EC50 [M] hPBMC Proliferation” value was 2.75e-12 M. In the case of B4, the “EC50 [M] hPBMC Proliferation” value is reported as 9.52e-13 M. With B5 the “EC50 [M] hPBMC Proliferation” value was 1.03e-12 M. B6 was tested, and the “EC50 [M] hPBMC Proliferation” value was 7.34e-13 M. With B7 the “EC50 [M] hPBMC Proliferation” value was 1.51e-12 M. B8 was tested, and the “EC50 [M] hPBMC Proliferation” value was 1.46e-12 M. For B9, the “EC50 [M] hPBMC Proliferation” value was 2.6e-12 M. B10 was tested, and the “EC50 [M] hPBMC Proliferation” value was 2.13e-12 M. For B11, the “EC50 [M] hPBMC Proliferation” value was 1.05e-12 M. B12 was tested, and the “EC50 [M] hPBMC Proliferation” value was 2.43e-12 M. For B13, the “EC50 [M] hPBMC Proliferation” value was 1.3e-12 M. B14 was tested, and the “EC50 [M] hPBMC Proliferation” value was 2.8e-12 M. For B15, the “EC50 [M] hPBMC Proliferation” value was 2.17e-12 M. In the case of B16, the “EC50 [M] hPBMC Proliferation” value is reported as 2.37e-12 M. In the case of B17, the “EC50 [M] hPBMC Proliferation” value is reported as 2.42e-12 M. In the case of B18, the “EC50 [M] hPBMC Proliferation” value is reported as 1.27e-12 M.

These binders were tested against cynomolgus monkey CD3 expressed on monkey T-cells (PBMCs) (cynomolgus monkey, UniProt Q95LI5 22-198; Q95LI8 22-171) (assay: cell-based or functional assay).
Sequence of cynomolgus monkey CD3 expressed on monkey T-cells (PBMCs) (Q95LI5 22-198, chain 1 of 2): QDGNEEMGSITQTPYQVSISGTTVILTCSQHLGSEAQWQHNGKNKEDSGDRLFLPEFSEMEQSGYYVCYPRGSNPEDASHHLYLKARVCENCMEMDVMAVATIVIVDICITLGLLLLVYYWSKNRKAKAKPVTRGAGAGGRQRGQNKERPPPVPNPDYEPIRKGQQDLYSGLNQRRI
Sequence of cynomolgus monkey CD3 expressed on monkey T-cells (PBMCs) (Q95LI8 22-171, chain 2 of 2): as the sequence (chain, as listed by the source, chain 2 of 4) above, with I5V, N15K, I20V, S32T, D33N, I34N, T64A, S74N, V83L, H141R counted along it
With B1 the “EC50 [M] mfPBMC Proliferation” value was 2.29e-12 M. For B2, the “EC50 [M] mfPBMC Proliferation” value was 4.97e-13 M. B3 was tested, and the “EC50 [M] mfPBMC Proliferation” value was 2.81e-13 M. For B4, the “EC50 [M] mfPBMC Proliferation” value was 2.26e-11 M. B5 was tested, and the “EC50 [M] mfPBMC Proliferation” value was 4.9e-11 M. With B6 the “EC50 [M] mfPBMC Proliferation” value was 4.35e-12 M. B7 was tested, and the “EC50 [M] mfPBMC Proliferation” value was 1.26e-11 M. With B8 the “EC50 [M] mfPBMC Proliferation” value was 7.02e-12 M. In the case of B9, the “EC50 [M] mfPBMC Proliferation” value is reported as 1.72e-12 M. With B10 the “EC50 [M] mfPBMC Proliferation” value was 1.38e-11 M. In the case of B11, the “EC50 [M] mfPBMC Proliferation” value is reported as 2.05e-11 M. For B12, the “EC50 [M] mfPBMC Proliferation” value was 7.27e-11 M. For B13, the “EC50 [M] mfPBMC Proliferation” value was 1.83e-11 M. For B14, the “EC50 [M] mfPBMC Proliferation” value was 8.88e-11 M. With B15 the “EC50 [M] mfPBMC Proliferation” value was 1.11e-11 M. For B16, the “EC50 [M] mfPBMC Proliferation” value was 4.84e-12 M. With B17 the “EC50 [M] mfPBMC Proliferation” value was 1.36e-12 M. With B18 the “EC50 [M] mfPBMC Proliferation” value was 1.4e-08 M.

Molecular target: T1, human CD3 expressed on cells (Jurkat …)
Assay: cell-based or functional assay
Remark: another data set of the same source
For B1, the “U937 Cytotoxicity Human T-cells” value was 5.21 pM. For B2, the “U937 Cytotoxicity Human T-cells” value was 5.47 pM. In the case of B3, the “U937 Cytotoxicity Human T-cells” value is reported as 7.89 pM. With B4 the “U937 Cytotoxicity Human T-cells” value was 10.4 pM. In the case of B5, the “U937 Cytotoxicity Human T-cells” value is reported as 9.96 pM. In the case of B6, the “U937 Cytotoxicity Human T-cells” value is reported as 11.9 pM. For B7, the “U937 Cytotoxicity Human T-cells” value was 10.8 pM. With B8 the “U937 Cytotoxicity Human T-cells” value was 45.9 pM. With B9 the “U937 Cytotoxicity Human T-cells” value was 9.21 pM. For B10, the “U937 Cytotoxicity Human T-cells” value was 7.5 pM. In the case of B11, the “U937 Cytotoxicity Human T-cells” value is reported as 12.3 pM. In the case of B12, the “U937 Cytotoxicity Human T-cells” value is reported as 5.91 pM. B13 was tested, and the “U937 Cytotoxicity Human T-cells” value was 1.81 pM. With B14 the “U937 Cytotoxicity Human T-cells” value was 4.18 pM. With B15 the “U937 Cytotoxicity Human T-cells” value was 15.3 pM. In the case of B16, the “U937 Cytotoxicity Human T-cells” value is reported as 4.71 pM. In the case of B17, the “U937 Cytotoxicity Human T-cells” value is reported as 6.1 pM. B18 was tested, and the “U937 Cytotoxicity Human T-cells” value was 19.6 pM.

What follows are binders tested against T1, human CD3 expressed on cells (Jurkat …) (assay: FACS titration on Jurkat cells, monovalent 1-arm antibody).
Experimental: FACS data was acquired using the following protocol: Cells at 2×10⁵ per well were incubated with serially diluted antibodies for 30 min on ice. Post incubation, cells were washed and secondary antibody was added and incubated for an additional 30 minutes. After incubation, cells were washed, re-suspended in cold PBS containing 1% BSA and analyzed by flow cytometry with viable Jurkat cells gated by side and forward scatters. The EC₅₀s for cell binding titration were determined using Prism software with values calculated using a 4-parameter non-linear regression analysis.
In the case of B1, the EC50 is reported as 0.726 nM. B2 was tested, and the EC50 was 3.24 nM. For B3, the EC50 was 0.701 nM. With B4 the EC50 was 0.795 nM. Binder B5 has an EC50 of 1.5 nM. For B6, the EC50 was 0.715 nM. B7 showed an EC50 of 2.29 nM. B8 showed an EC50 of 51.9 nM. With B9 the EC50 was 1.4 nM. For B10, the EC50 was 1.83 nM. In the case of B11, the EC50 is reported as 1.01 nM. Work on B12 yielded an EC50 of 1.37 nM. B13 was tested, and the EC50 was 1.45 nM. B14 showed an EC50 of 1.09 nM. B15 gave an EC50 of 1.07 nM. B16 gave an EC50 of 1.5 nM. Binder B17 has an EC50 of 0.342 nM. B18 gave an EC50 of 34.4 nM.
